Reference: CN115057931A

Biological target: human LAG-3, full length, on transfected cells (human) (UniProt P18627)
Assay: cell-based or functional assay

UniProt P18627, sequence (P18627 23-525 limits assumed): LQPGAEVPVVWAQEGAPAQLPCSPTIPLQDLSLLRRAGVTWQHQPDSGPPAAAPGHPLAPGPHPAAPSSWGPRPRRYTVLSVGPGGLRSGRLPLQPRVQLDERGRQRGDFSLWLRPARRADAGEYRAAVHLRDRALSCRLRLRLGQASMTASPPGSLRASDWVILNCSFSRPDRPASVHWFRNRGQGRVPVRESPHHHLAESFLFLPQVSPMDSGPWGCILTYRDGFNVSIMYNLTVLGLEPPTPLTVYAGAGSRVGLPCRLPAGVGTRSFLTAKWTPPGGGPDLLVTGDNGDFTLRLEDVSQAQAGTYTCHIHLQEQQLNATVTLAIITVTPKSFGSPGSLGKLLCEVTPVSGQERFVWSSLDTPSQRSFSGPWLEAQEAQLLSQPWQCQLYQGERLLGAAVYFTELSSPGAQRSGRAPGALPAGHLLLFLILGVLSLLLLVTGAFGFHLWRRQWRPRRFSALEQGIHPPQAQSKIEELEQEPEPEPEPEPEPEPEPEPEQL

B1: BMK7 (antibody, from another filing, V domains shown)
VH: QVQLVESGGGVVQPGRSLRLSCVASGFTFSSYGMHWVRQAPGKGLEWVAIIWYDGSNKYYADSVKGRFTISRDNSKNTQYLQMNSLRAEDTAVYYCASVATSGDFDYYGMDVWGQGTTVTVSS
VL: EIVLTQSPATLSLSPGERTTLSCRASQRISTYLAWYQQKPGQAPRLLIYDASKRATGIPARFSGSGSGTGFTLTISSLEPEDFAVYYCQQRSNWPLTFGGGTKVEIK
EC50(nM), IL-2 luciferase reporter in Jurkat cells expressing human LAG-3 with Raji cells and SEE: 2.65 nM
